Test results as given in article PMC2173498 (The Journal of Cell Biology, 2002).

Target: the molecule itself
Assay: SEC

B1: Nucleoplasmin-M9 (other)
chain: MASTVSNTSKLEKPVSLIWGCELNEQDKTFEFKVEDDEEKCEHQLALRTVCLGDKAKDEFNIVEIVTQEEGAEKSVPIATLKPSILPMATMVGIELTPPVTFRLKAGSGPLYISGQHVAMEEDYSWAEEEDEGEAEGEEEEEEEEDQESFGNYNNQSSNFGPMKGGNFGGRSSGPYGGGGQYFAKPRNQGGYG
How did the “stoichiometry N” value turn out when B1 was run?
Its value is 10.
